Legend:
[1] = target: T1, hDcr-C (RNase IIIa/IIIb-dsRBD) fragment of human Dicer (Homo sapiens, UniProt Q9UPY3 SEQ:1235-1922); assay: filter; out of detectable limit; almost no binding; conditions: tags: expressed from pHMGWA-His6-MBP vector, E. coli; label: 5'-32P on one strand; siRNA duplex, 19 bp, Dicer product mimic
T1 chain: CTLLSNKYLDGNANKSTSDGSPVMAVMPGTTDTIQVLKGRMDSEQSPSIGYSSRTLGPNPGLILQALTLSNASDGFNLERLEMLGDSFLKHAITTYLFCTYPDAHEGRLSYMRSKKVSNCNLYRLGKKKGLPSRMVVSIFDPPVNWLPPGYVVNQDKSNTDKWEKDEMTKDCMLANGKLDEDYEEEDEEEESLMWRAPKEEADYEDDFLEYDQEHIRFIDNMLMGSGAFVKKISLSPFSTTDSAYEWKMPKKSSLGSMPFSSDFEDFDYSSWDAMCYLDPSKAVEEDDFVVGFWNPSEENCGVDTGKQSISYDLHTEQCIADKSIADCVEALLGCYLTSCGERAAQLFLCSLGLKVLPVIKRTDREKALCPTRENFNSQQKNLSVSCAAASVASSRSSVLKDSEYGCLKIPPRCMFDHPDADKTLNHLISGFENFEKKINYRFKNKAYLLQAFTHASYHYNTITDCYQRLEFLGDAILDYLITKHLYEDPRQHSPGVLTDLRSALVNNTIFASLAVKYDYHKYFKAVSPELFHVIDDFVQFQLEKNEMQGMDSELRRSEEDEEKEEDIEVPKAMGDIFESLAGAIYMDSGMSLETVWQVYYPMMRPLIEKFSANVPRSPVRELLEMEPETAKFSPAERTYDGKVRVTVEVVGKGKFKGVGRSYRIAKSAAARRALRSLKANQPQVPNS
Description: (§1) Filter binding assays of hDcr and different hDcr fragments were performed in the same way as previously described (7). Briefly, serial dilutions of hDcr protein were incubated in a buffer containing 20 mM Tris-HCl (pH 7.5), 25 mM NaCl, 5 mM EDTA, 1 mM dithiothreitol (DTT), 1% glycerol and ˜0.5-1 nM (1500 CPM) of 5′-end ³²P-labeled duplex RNA substrate (one strand was labeled) at room temperature for 60 min in a 30 μl of total volume. Following incubation, a 25 μl aliquot of each reaction was applied to a dot-blot apparatus equipped with three membranes: Tuffryn, Protran and Nytran (from top to bottom). After drying, the bound (on Protran) or free (on Nytran) RNAs were quantified by a Phosphorimager (GE Healthcare). Percent bound RNA, calculated as the ratio of radioactivity detected on the Protran membrane over the total input radioactivity, was plotted as a function of protein concentration. Kd was determined by global fitting to the equation: kobsd=(kₘₐₓ[…]) (Kd+[Dicer])−1, where kobsd is the observed rate constant at a given protein concentration, kₘₐₓ is the maximal rate constant with saturating protein, and Kd is the protein concentration that provides half the maximal rate. Curve fitting was conducted with KaleidaGraph (Synergy Software, Reading, Pa.). […]

[2] = target: T2, MBP-ATPase/helicase fragment of human Dicer (Homo sapiens, UniProt Q9UPY3 SEQ:1-604); assay: filter; out of detectable limit; 5 mM EDTA; conditions: tags: His6-MBP N-terminal fusion (pHMGWA), E. coli; label: 5'-32P on one strand; siRNA duplex, 19 bp, Dicer product mimic
T2 chain: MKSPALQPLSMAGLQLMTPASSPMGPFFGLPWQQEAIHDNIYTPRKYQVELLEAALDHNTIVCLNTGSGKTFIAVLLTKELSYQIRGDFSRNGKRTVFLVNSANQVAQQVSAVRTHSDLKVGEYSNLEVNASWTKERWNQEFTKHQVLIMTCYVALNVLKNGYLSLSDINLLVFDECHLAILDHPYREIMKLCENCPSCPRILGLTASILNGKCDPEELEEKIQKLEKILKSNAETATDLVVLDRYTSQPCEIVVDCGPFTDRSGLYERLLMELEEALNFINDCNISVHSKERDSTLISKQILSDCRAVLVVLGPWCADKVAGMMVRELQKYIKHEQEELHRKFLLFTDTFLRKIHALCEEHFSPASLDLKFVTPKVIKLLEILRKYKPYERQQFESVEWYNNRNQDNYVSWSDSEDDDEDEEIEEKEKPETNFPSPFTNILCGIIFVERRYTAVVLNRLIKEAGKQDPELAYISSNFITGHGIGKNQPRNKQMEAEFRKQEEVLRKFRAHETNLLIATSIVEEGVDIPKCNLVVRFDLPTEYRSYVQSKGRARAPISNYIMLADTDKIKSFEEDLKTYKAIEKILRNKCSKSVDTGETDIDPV
Description: as §1

[3] = target: T3, hDcr-CΔRBD fragment of human Dicer (Homo sapiens, UniProt Q9UPY3 SEQ:1235-1844); assay: filter; out of detectable limit; conditions: tags: expressed from pHMGWA-His6-MBP vector, E. coli; label: 5'-32P on one strand; siRNA duplex, 19 bp, Dicer product mimic
T3 chain: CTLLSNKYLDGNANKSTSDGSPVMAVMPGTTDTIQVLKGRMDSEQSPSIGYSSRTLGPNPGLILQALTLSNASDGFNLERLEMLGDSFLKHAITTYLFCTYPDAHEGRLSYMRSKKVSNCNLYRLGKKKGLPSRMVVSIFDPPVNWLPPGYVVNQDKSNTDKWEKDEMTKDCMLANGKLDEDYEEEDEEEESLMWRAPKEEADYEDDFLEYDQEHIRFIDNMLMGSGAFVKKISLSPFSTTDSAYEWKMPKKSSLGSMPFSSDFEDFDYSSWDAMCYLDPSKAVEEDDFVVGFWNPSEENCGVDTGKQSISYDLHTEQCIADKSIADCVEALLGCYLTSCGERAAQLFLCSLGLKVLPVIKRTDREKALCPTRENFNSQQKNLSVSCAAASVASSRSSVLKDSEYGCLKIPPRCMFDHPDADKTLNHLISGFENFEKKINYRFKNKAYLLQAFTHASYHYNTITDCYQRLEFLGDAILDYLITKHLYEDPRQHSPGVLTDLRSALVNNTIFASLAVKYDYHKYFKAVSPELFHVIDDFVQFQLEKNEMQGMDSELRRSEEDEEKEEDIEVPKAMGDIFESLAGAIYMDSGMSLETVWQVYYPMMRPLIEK
Description: Filter binding assays of hDcr and different hDcr fragments were performed in the same way as previously described (7). Briefly, serial dilutions of hDcr protein were incubated in a buffer containing 20 mM Tris-HCl (pH 7.5), 25 mM NaCl, 5 mM EDTA, 1 mM dithiothreitol (DTT), 1% glycerol and ˜0.5-1 nM (1500 CPM) of 5′-end ³²P-labeled duplex RNA substrate (one strand was labeled) at room temperature for 60 min in a 30 μl of total volume. Following incubation, a 25 μl aliquot of each reaction was applied to a dot-blot apparatus equipped with three membranes: Tuffryn, Protran and Nytran (from top to bottom). After drying, the bound (on Protran) or free (on Nytran) RNAs were quantified by a Phosphorimager (GE Healthcare). Percent bound RNA, calculated as the ratio of radioactivity detected on the Protran membrane over the total input radioactivity, was plotted as a function of protein concentration. Kd was determined by global fitting to the equation: kobsd=(kₘₐₓ[…]) (Kd+[Dicer])−1, where kobsd is the observed rate constant at a given protein concentration, kₘₐₓ is the maximal rate constant with saturating protein, and Kd is the protein concentration that provides half the maximal rate. Curve fitting was conducted with KaleidaGraph (Synergy Software, Reading, Pa.).
To establish the relationship between cleavage activity and substrate binding, nitrocellulose filter-binding assays were performed with three kinds of RNAs under non-cleavage conditions: substrate dsRNA ([…]), Dicer product-mimic dsRNA (19-bp) and a pre-miRNA (pre-hlet-7a-1).

[4] = target: T4, MBP-ATPase/hel, ATPase/helicase domain of human Dicer (1-604) fused with maltose-binding protein, bacterially … (human, UniProt Q9UPY3 1-604); assay: size exclusion and pull-down (brief figure description)
T4 construct: not shown: the His6 tag and the linker/TEV site lette
T4 sequence: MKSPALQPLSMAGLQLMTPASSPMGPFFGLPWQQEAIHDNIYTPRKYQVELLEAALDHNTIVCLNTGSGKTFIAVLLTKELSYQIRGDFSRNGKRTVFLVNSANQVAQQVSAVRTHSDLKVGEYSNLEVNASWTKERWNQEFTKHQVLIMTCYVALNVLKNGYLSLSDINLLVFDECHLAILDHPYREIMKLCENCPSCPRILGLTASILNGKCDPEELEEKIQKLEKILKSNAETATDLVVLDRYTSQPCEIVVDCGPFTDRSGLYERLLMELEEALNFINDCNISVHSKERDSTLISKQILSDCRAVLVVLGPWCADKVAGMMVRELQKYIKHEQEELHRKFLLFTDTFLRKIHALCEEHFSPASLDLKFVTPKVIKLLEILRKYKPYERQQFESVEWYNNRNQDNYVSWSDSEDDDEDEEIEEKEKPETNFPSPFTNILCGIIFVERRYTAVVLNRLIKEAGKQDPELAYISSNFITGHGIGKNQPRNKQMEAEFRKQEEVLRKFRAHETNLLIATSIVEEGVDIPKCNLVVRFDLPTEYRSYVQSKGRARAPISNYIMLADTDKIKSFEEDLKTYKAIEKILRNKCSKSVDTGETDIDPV
Description: Six microgram of both of hTRBP2 and mbp-ATPase/hel-HA proteins were mixed with 15 μl of anti-hemagglutinin (anti-HA) antibody-coupled agarose beads in 1× phosphate-buffered saline (PBS) buffer (Sigma, Saint Louis, Mo.) and incubated in cold room and rocked 60 min. The mixture was pelleted by 30 sec spin at 10,000×g and then washed once with 1×PBS and followed by 5 times with the washing buffer of 20 mM Hepes (pH 7.5), 250 mM NaCl, 1% glycerol and 0.1% Triton X-100. After the last wash, the pellet was boiled for 3 min in 1.2×SDS protein loading buffer. As a control, hTRBP2 alone was also processed in the same way.
ATPase/Helicase domain of hDcr interacts with TRBP. A. Schematic representation of bacterially expressed ATPase/hel domain tagged with MBP. B. The interaction of MBP-ATPase/hel fragment with hTRBP2. A pre-incubated mixture of the MBP-ATPase/hel fragment with 3-fold excess of hTRBP2 was fractionated with a Superdex 200 size-exclusion column (top panel, elution profile). […] The excess hTRBP2 elutes in the second peak. C. MBP-ATPase/hel can pull-down hTRBP2. The MBP-ATPase/hel-domain was purified with a C-terminal hemagglutinin (HA) epitope tag. The two purified proteins (30 pmol of hDcr and 130 pmol of hTRBP2) were incubated on ice with anti-HA antibody agarose beads (Sigma-Aldrich) for 60 min prior to several washes. The bound proteins are eluted via boiling with 1.2×SDS buffer. […]

B1: 21ab (dsRNA)
RNA 1: UAUACAAUGUGCUAGCUUUCU
RNA 2: AAAGCUAGCACAUUGUAUAGU
B1: no binding [1]; no binding [2]; no binding [3].

B2: human TAR-RNA binding protein (hTRBP2), recombinant (other, UniProt Q15633 1-366, looked up)
chain: MSEEEQGSGTTTGCGLPSIEQMLAANPGKTPISLLQEYGTRIGKTPVYDLLKAEGQAHQPNFTFRVTVGDTSCTGQGPSKKAAKHKAAEVALKHLKGGSMLEPALEDSSSFSPLDSSLPEDIPVFTAAAAATPVPSVVLTRSPPMELQPPVSPQQSECNPVGALQELVVQKGWRLPEYTVTQESGPAHRKEFTMTCRVERFIEIGSGTSKKLAKRNAAAKMLLRVHTVPLDARDGNEVEPDDDHFSIGVGSRLDGLRNRGPGCTWDSLRNSVGEKILSLRSCSLGSLGALGPACCRVLSELSEEQAFHVSYLDIEELSLSGLCQCLVELSTQPATVCHGSATTREAARGEAARRALQYLKIMAGSK
notes: Purified recombinant protein
B2: binds [4].

Source: patent US20130196383A1, “Method of Producing Dicer” (published 2013)
